The results in this text go back to publication PMC9669668.

The target of assay [1] is nucleotide-binding domain of Hsp70 (Hsp70 NBD, aa 1–382) (human) (UniProt P0DMV8). Briefly: ITC. (Isothermal titration calorimetry measures the heat released or taken up as one component is titrated into another.)
Assay [2] shares this target. Kind of assay: ITC. The source holds these as a separate data set.

Where two headings read alike, the source gives them in different places.

Chain of UniProt P0DMV8 (P0DMV8 1-382): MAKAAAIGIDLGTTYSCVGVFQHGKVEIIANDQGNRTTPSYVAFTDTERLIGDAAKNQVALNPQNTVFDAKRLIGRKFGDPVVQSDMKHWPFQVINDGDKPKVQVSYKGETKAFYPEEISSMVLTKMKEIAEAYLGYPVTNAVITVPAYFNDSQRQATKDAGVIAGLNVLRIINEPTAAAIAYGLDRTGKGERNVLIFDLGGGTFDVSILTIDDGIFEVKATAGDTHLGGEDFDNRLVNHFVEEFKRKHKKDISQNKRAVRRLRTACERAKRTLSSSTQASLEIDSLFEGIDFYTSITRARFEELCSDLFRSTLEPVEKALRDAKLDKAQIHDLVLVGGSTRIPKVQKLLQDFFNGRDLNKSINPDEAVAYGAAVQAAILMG

One may read the Kd as a measure of binding affinity in units of concentration. A higher Kd goes with lower affinity. The stoichiometry N is a count of units in the complex or per binding partner. “FAF1 L-UBL1 (aa 91–171) (from UniProt Q9UNN5 91-171) (domain or fragment)” registered a Kd in assay [1] of 3.1 µM. In assay [2], this substance gave a Kd of 3.1 µM and a stoichiometry N of 1.
Substance “FAF1 (aa 1–171) (from UniProt Q9UNN5 1-171) (domain or fragment)” showed a Kd in assay [1] of 56.5 µM. In assay [2], this substance gave a Kd of 15.9 µM and a stoichiometry N of 1.
